# Data: patent publication US7067633B2, “Targeting cellular entry, cell survival, and pathogenicity by dynein light chain 1/PIN in human cells” (Board of Regents, The University of Texas System, priority 2003, dated 2006)
# B1: […] Pak1 auto inhibitory fragment used as an inhibitor (Pak1 amino acids 83–149) (protein, UniProt Q13153 83-149, looked up, fragment)
# chain: HTIHVGFDAVTGEFTGMPEQWARLLQTSNITKSEQKKNPQAVLDVLEFYNSKKTSNSQKYMSFTDKS
# B2: DLC1-66 peptide: SEQ ID NO:11; DLC1/PIN mutant, amino acids 1–66, lacking the C-terminal 23 amino acids (Pak1 binding and phosphorylation sites) (protein, listed as Homo sapiens)
# chain: MCDRKAVIKNADMSEEMQQDSVECATQALEKYNIEKDIAAHIKKEFDKKYNPTWHCIVGRNFGSYV
# B3: DLC1 1-68R mutant: DLC1 mutant lacking amino acids 67–89, behaves as a dominant-negative (protein, UniProt P63167 1-66, looked up, fragment)
# chain: B2 chain
# Key:
# DLC1/PIN = assay: In vivo 32P-orthophosphate labeling and immunoprecipitation of T7-DLC1/PIN; type: cell-based, human; conditions: MCF-7 cells, coexpression with T7-DLC1/PIN
# Description: FIGS. 2A–2G—MapDLC1/PINg of interaction domains of Pak1 and DLC1/PIN. FIG. 2A: Identification of Pak1 domains that interact with DLC1/PIN. GST-Pak1 fusion proteins containing wild-type (amino acids 1–545), kinase domain (amino acids 270–545), N-terminal domain (amino acids 1–132), PIX binding domain (amino acids 132–270), Nck-binding domain (amino acids 1–75), Cdc42/Rac-interacting (CRIB) domain (amino acids 52–132), and auto-inhibitory domain (amino acids 75–149) were incubated with in vitro translated DLC1/PIN (amino acids 1–89), and binding was analyzed by GST pull-down assay. FIG. 2B: Identification of the DLC1/PIN region that is involved in the binding of Pak1. GST-fusions of various lengths of DLC1/PIN were used in the GST pull-down assay using ^35S-labelled Pak1 (amino acids 1–545). FIGS. 2C–2G—Pak1 phosphorylation of DLC1/PIN. FIG. 2C: In vitro kinase assay using GST-DLC1/PIN as a substrate and purified bacterially expressed Pak1 as an enzyme. MBP was used as a positive control. FIG. 2D: ZR75R cells stably expressing T7-DLC1/PIN were labeled in vivo with ^32P-orthophosphate, serum starved, treated with EGF or HRG, and immunoprecipitated and phosphorylation status of DLC1/PIN was visualized by autoradiography. […] Cells were metabolically labeled with ^32P orthophosphate, treated with or without EGF (1 nM) and phosphorylation of T7-DLC1/PIN was analyzed by immunoprecipitation. […]
# DLC1 promoter = DLC1 promoter luciferase reporter; type: cell-based, human; conditions: MCF-7 cells, expression of inhibitor
# Description: FIGS. 21A–21J—Estrogenic signals upregulate DLC1 expression via Pak1 pathway. FIG. 21A: DLC1 upregulation by E2 or Tam. MCF-7/Tam-sen, MCF-7/TAMR1 and Ishikawa cells were treated with E2 (10^−9M) or Tam (10^−9M) for 24 h, and cell lysates were assayed for DLC1 and Pak1 protein expression. FIG. 21B: Upregulation of DLC1 mRNA in MCF-7 cells treated with different doses of E2 for 24 h. FIG. 21C: Effect of different periods of E2 treatment and cycloheximide (CHX) and Actinomycin D (ACTD) treatment on the ability of E2 to upregulate DLC1 mRNA in MCF-7 cells. FIG. 21D: DLC1 mRNA and protein levels in MCF-7/DA-Pak1 cells by Northern and Western blotting. FIG. 21E: DLC1 mRNA and protein levels in MCF-7/DN-Pak1 cells by Northern and Western blotting. FIG. 21F: Downregulation of DLC1 protein expression in MCF-7 cells treated with Pak1-siRNA for 24 h. FIG. 21G: Modulation of DLC1 promoter (1245 bp) luc activity by the expression of wtPak1 or DN-Pak1. MCF-7 cells were transfected with DLC1-luc and transfected with either wtPak1 or Pak1 inhibitor 83-149 and luc activity was measured after 24 h. FIG. 21H: Upregulation of DLC1 promoter luc activity following pak1 induction in MCF-7/DA-Pak 1 cells. FIG. 21I: Downegulation of DLC1 promoter luc activity in MCF-7/DN-pak1 cells. […]
# SKBR-3 cells = assay: Pak1-mediated macropinocytosis, vesicle formation by confocal microscopy; type: cell-based, human
# Description: FIG. 3—Requirement of DLC1/PIN in Pak1 mediated macropinocytosis. SKBR-3 cells were cotransfected with RFP-DLC1/PIN and GFP-Pak1 (upper panel), RFP-DLC1/PIN-S88A, and GFP-Pak1 (middle panel) and RFP-DLC1-1-66, and GFP-Pak1 (lower panel). Vesicle formation and localization of GFP and RFP proteins were analyzed by confocal microscopy. Ten randomly selected fields were analyzed for each condition. The experiment was repeated twice with similar results. Quantitation of vesicles formation was done using the following scoring system. −, cells containing 0–9 vesicles; +, cells containing 10–20 vesicles; and ++, cells containing >20 vesicles.
# Requirement of DLC1/PIN in Pak1 mediated macropinocytosis. […] The inventors have used the fluorescein isothiocyanate (FITC)-labeled Dextran as a marker of endocytosis using a well-established dextran beads uptake assay (Dharmawardhane et al., 2000). […]
# SK-BR3 cells were cotransfected with RFP-DLC1 and GFP-Pak1 (upper panel), RFP-DLC1-S88A and GFP-Pak1 (middle panel), and RFP-DLC8-1-66 and GFP-Pak1 (bottom panel). Vesicle formation and localization of GFP and RFP proteins were analyzed by confocal microscopy. Ten randomly selected fields were analyzed for each condition. […]
# Human dendritic cells = assay: Macropinocytosis in dendritic cells, FITC-dextran uptake; type: cell-based; conditions: expression in human dendritic cells
# Description: (§1) FIG. 16—DLC1 is required for macropinocytosis in dendritic cells. Human dendritic cells were plated on cover sips in 6-well tissue culture plates, transfected with RFP-DLC1 wild type or DLC1-1-66 mutant lacking Pak1 binding and phosphorylation sites. After 12 hours, FITC-dextran was added to the culture medium for 20 min and cells were fixed and stained with Topro-3 (a DNA dye) and analyzed by confocal microscopy for RFP-DLC1 (red) or RFP-DLC1-1-66 (red) and FITC-dextran (green). White arrows point to RFP-DLC1-1-66 transfected cells and red arrows point to cells transfected with RFP-DLC1.
# as §1, with “Human” for “FIG. 16—DLC1 is required for macropinocytosis in dendritic cells. Human”, “slips” for “sips”
# [1] = tested on: ER transactivation (ERE-luc); assay: ERE-luc transactivation assay; type: cell-based, human; conditions: compared to the wild type DLC1
# Description: MCF-7/DA-Pak1 cells were transfected with ERE-luc, treated with or without Dox for 24 h and then with or without E2 (10^−9M) and/or Tam (10^−8M) for 24 h, and ERE-luc activity was measured. […] FIG. 20D: MCF-7/TAM-Sen and MCF-7/TAMR1 cells were transfected with ERE-luc and treated with E2 or Tam for 24 h and ERE-luc activity was measured. […] FIG. 20L: Ishikawa cells were cotransfected with Pak1 siRNA control or Pak1 siRNA wt and treated with or without Tam (10^−8M) for 24 h and ERE-luc activity was measured.
# Ishikawa and MCF-7/TAMR1 cells were transfected with control or Pak1 siRNA for 48 h and then with ERE-luc for 24 h and treated with E2 (10^−9M) for 24 h and ERE-luc activity was measured. […] Ishikawa cells were treated with control or and Pak1 and DLC siRNA for 48 h and then transfected with ERE-luc and treated with Tam (10^−8M) for 24 h and ERE-luc activity was measured.
molecule,measurement,setting,value
B1,EGF-stimulated DLC1/PIN phosphorylation,DLC1/PIN,completely blocked
same,DLC1 promoter activity,DLC1 promoter,suppressed
B2,transfected cells in which formation of vesicles was completely blocked,SKBR-3 cells; cotransfected with GFP-Pak1,more than 80%
same,macropinocytic functions,SKBR-3 cells; expression in human breast cancer cell line SKBR3,blocks macropinocytic functions
same,macropinocytic functions,Human dendritic cells,blocks macropinocytic functions
B3,ERE-transactivation in the presence of tamoxifen,[1],reduced ERE-transactivation
